This is an account of results in patent publication US20220289850 (published 2022).

T1: cynomolgus integrin avb8 (cynomolgus)
T1 chain 1: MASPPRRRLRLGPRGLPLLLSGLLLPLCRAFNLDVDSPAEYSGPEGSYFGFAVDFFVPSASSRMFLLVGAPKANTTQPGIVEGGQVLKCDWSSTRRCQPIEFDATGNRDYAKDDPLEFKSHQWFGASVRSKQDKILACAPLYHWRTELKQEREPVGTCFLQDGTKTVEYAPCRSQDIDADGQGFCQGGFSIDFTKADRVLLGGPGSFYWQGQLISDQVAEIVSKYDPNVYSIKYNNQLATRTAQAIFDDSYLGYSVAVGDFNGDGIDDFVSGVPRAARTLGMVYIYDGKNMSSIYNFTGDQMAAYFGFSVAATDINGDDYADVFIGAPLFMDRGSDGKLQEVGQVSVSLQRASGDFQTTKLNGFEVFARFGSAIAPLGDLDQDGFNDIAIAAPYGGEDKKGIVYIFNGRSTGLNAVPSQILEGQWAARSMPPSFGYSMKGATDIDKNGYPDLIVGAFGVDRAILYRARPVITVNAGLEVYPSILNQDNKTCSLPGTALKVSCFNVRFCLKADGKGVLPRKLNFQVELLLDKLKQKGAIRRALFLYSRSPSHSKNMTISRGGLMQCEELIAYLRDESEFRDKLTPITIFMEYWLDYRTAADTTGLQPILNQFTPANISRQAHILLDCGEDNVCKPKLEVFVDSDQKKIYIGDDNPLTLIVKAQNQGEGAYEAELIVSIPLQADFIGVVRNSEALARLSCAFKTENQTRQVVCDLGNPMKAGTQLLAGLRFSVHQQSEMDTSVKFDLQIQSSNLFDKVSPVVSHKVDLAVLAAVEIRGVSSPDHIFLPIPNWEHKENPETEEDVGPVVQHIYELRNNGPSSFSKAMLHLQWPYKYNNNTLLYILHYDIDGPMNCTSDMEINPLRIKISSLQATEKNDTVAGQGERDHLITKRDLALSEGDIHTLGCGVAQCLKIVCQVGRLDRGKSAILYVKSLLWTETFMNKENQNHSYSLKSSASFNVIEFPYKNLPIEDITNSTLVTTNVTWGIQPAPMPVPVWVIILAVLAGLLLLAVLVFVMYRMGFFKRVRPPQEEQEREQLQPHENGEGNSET
T1 chain 2: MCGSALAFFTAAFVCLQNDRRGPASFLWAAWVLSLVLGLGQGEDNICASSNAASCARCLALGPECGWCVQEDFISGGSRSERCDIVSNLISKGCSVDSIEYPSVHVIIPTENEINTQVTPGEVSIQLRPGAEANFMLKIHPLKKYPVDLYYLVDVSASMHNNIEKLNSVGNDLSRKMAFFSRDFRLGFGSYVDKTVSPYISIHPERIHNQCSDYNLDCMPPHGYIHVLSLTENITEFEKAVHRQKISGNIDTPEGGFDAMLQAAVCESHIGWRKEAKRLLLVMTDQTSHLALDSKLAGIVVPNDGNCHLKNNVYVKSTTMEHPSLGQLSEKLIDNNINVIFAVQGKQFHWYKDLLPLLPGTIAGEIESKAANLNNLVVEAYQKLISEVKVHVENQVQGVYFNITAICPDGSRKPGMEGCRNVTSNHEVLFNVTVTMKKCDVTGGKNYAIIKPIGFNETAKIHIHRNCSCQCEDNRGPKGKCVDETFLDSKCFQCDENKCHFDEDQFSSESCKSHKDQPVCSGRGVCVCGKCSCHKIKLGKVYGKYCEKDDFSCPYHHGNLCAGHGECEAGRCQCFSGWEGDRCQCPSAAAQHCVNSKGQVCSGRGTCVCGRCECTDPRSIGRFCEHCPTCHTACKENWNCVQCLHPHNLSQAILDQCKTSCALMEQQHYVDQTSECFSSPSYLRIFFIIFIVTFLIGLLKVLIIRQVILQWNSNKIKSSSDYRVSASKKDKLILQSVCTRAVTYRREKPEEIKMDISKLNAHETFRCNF

B1: Mouse hybridoma ADWA-11 Fab (antibody, V domains shown)
VH: EVQLQQSGAELVRPGAFVKLSCKASGFNIKDYYMNWVLQRPEQGLEWIGWIDPDNGNTIYDPKFQGKASITADTSSNTAYLQLSSLTSEDTAVYYCARRLLMDYWGQGTSVTVSS
VL: DIVMTQAAPSVPVTPGESVSISCRSTKSLLHFNGNTYLFWFLQRPGQSPQRLIYYMSNLASGVPDRFSGRGSGTDFTLRISRVEAEDVGVYYCMQSLEYPFTFGTGTKLEIK
B2: ADWA11 VH05/VK01 (VH05-2_VK01) Fab (antibody, V domains shown)
VH: EVQLVESGGGLVQPGGSLRLSCAASGFNIKDYYMNWVRQAPGKGLEWVGWIDPDNGNTIYDPKFQGRFTISADTSKNSAYLQMNSLRAEDTAVYYCARRLLMDYWGQGTLVTVSS
VL: DIQMTQSPSSLSASVGDRVTITCRSTKSLLHFNGNTYLFWYQQKPGKAPKRLIYYMSNLASGVPSRFSGSGSGTDFTLTISSLQPEDFATYYCMQSLEYPFTFGQGTKVEIK
B3: ADWA11 2.4 Fab (antibody, V domains shown)
VH: EVQLVESGGGLVQPGGSLRLSCAASGFNIKDYYMNWVRQAPGKGLEWVGWIDPDQGNTIYEPKFQGRFTISADTSKNSAYLQMNSLRAEDTAVYYCARRLLMDYWGQGTLVTVSS
VL: DIQMTQSPSSLSASVGDRVTITCRSTKSLSHFNGNTYLFWYQQKPGKAPKRLIYYMSSLASGVPSRFSGSGSGTDFTLTISSLQPEDFATYYCQQSLEYPFTFGGGTKVEIK

The target of the experiment is T1, cynomolgus integrin avb8. In words: SPR 25C.
As to B1, binding was put at a Kd of 0.507 nM.
Regarding B2, the equilibrium dissociation constant (Kd) (in general, the free concentration of one partner at which half of the binding sites on the other are occupied at equilibrium, for simple one-to-one binding) is below 0.1 nM.
Molecule B3 registered a Kd below 0.2 nM.
